# Test results as given in publication PMC11960800 (The FASEB Journal, 2025).
# T1: fibulin‐4 (FBLN4), recombinant full-length human (human, UniProt O95967 24-443)
# T1 sequence (looked up): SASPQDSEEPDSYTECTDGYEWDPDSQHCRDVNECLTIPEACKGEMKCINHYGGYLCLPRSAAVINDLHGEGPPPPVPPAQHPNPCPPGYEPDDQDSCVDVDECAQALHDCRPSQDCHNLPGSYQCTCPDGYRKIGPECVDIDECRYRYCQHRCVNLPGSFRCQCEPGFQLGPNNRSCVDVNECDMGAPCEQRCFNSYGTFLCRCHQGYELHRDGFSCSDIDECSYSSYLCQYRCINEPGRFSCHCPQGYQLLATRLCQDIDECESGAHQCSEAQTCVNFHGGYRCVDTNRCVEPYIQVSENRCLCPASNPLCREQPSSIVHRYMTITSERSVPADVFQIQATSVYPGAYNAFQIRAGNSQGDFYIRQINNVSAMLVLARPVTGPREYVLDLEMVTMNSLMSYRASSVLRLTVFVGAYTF
# B1: recombinant syndecan-2 ectodomain (SDC2‐ED) (domain or fragment, human, UniProt P34741 19-144, looked up)
# chain: ESRAELTSDKDMYLDNSSIEEASGVYPIDDDDYASASGSGADEDVESPELTTSRPLPKILLTSAAPKVETTTLNIQNKIPAQTKSPEETDKEKVHLSDSERKMDPAEEDTNVYTEKHSDSLFKRTE
# B2: recombinant syndecan-3 ectodomain (SDC3‐ED) (domain or fragment, human, UniProt O75056 48-387, looked up)
# chain: QRWRSENFERPVDLEGSGDDDSFPDDELDDLYSGSGSGYFEQESGIETAMRFSPDVALAVSTTPAVLPTTNIQPVGTPFEELPSERPTLEPATSPLVVTEVPEEPSQRATTVSTTMATTAATSTGDPTVATVPATVATATPSTPAAPPFTATTAVIRTTGVRRLLPLPLTTVATARATTPEAPSPPTTAAVLDTEAPTPRLVSTATSRPRALPRPATTQEPDIPERSTLPLGTTAPGPTEVAQTPTPETFLTTIRDEPEVPVSGGPSGDFELPEEETTQPDTANEVVAVGGAAAKASSPPGTLPKGARPGPGLLDNAIDSGSSAAQLPQKSILERKEVLV
# Experiments:
# Assay in all cases: SPR
# [1] = biological target: latent TGF‐β binding protein‐4, short isoform (LTBP4S), recombinant full-length human (human)
# [2] = biological target: T1, fibulin‐4 (FBLN4), recombinant …
# [3] = biological target: latent TGF‐β binding protein‐4, long isoform (LTBP4L), recombinant full-length human (human, UniProt Q8N2S1-1 28-1624)
koff [1],koff [2],koff [3],Molecule
6.3e-05 s⁻¹,,,recombinant syndecan-3 ectodomain (SDC3‐ED) (from UniProt O75056 48-387) (domain or fragment)
,0.00041 s⁻¹,,B1
,0.00082 s⁻¹,5.5e-05 s⁻¹,B2
